Data on one molecule can be found in patent publication CN117736312A (SHANGHAI BOVAX BIOLOGICAL SCIENCE & TECH CO LTD, dated 2024).

Assay in all cases: sandwich ELISA (rabbit anti-L1 capture)
On the technique in general: An ELISA detects its analyte on a solid surface through an enzyme-linked reagent.

One test has as its target T1, HPV11L1 (human papillomavirus type 11, UniProt P04012 1-501).
T1 sequence: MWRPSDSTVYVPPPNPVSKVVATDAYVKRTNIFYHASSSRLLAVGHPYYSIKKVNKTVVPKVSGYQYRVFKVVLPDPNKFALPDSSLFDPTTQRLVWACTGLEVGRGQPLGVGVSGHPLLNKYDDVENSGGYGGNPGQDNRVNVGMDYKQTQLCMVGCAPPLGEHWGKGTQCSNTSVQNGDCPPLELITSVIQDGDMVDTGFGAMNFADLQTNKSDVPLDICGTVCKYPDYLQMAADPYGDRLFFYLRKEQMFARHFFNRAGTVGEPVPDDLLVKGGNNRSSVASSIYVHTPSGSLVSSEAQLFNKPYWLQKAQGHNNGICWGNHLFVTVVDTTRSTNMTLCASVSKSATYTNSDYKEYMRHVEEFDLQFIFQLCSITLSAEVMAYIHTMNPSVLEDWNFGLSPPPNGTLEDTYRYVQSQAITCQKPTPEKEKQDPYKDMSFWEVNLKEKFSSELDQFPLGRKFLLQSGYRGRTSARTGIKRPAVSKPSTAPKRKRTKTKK

The target of another test is T2, HPV56L1 (human papillomavirus type 56, UniProt P36743 36-534).
T2 sequence: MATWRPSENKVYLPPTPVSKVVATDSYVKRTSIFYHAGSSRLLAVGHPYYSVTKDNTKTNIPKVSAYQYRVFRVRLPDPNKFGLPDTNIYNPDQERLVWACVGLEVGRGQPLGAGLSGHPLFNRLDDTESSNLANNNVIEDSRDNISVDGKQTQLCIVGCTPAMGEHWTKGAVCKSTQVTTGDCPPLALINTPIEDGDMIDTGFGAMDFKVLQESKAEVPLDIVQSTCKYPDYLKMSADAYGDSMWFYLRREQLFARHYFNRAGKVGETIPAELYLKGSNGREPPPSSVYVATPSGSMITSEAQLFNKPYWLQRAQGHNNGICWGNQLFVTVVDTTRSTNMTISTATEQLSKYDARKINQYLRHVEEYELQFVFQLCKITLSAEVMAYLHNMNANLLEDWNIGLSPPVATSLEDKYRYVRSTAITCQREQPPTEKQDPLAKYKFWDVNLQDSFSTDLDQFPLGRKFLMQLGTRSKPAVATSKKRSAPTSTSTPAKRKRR

The target in the next test is T3, HPV16L1 (human papillomavirus type 16, UniProt P03101 1-505).
T3 sequence: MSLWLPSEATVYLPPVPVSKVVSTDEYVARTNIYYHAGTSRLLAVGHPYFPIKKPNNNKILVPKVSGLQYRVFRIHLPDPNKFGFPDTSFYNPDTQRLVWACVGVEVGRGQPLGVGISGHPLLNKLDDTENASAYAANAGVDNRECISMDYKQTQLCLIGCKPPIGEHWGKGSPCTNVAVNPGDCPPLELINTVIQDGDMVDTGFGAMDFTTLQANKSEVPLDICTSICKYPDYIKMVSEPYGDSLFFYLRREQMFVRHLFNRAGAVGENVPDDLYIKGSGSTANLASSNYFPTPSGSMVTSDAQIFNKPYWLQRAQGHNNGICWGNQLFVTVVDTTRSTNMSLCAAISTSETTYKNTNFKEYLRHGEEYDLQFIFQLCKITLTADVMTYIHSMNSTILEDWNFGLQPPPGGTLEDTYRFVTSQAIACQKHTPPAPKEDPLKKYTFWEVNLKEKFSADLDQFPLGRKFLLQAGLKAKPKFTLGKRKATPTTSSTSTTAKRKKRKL

The target in the next test is T4, HPV45L1 (human papillomavirus type 45, UniProt P36741 30-539).
T4 sequence: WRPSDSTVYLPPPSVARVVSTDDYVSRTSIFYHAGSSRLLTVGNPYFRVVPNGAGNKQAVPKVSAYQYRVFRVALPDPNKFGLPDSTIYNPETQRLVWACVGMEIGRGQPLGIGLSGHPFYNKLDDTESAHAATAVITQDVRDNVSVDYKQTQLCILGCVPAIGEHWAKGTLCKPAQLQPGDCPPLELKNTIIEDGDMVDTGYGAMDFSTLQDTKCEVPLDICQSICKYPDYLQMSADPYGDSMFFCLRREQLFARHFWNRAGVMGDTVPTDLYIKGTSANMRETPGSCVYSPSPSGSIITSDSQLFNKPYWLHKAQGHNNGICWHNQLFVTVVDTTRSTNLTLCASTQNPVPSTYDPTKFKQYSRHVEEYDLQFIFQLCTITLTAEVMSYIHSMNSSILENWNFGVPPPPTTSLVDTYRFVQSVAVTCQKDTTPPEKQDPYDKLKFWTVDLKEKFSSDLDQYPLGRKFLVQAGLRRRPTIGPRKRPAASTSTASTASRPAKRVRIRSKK

A further test deals with T5, HPV33L1 (human papillomavirus type 33, UniProt P06416 1-499).
T5 sequence: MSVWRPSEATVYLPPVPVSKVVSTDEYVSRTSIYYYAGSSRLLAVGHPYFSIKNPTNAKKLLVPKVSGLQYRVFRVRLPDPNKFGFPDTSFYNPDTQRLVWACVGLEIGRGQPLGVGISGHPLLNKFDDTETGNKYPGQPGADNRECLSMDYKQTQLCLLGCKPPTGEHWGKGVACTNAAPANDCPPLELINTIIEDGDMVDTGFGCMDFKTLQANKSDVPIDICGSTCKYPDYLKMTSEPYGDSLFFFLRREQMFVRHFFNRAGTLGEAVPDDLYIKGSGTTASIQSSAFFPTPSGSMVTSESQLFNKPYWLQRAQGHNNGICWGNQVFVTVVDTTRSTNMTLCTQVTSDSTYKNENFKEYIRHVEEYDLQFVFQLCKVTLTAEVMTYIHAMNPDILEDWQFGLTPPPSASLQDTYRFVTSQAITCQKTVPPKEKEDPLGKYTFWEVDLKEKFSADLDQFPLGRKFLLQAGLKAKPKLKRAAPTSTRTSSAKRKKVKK

B1: HPV 59编号为30单克隆抗体 (antibody, V domains shown)
VH: QIQLVQSGPELKKPGETVKISCKASGYTFTDYSMHWVKQAPGKGLKWMGWINTETGEPTYADDFKGRFAFSLETSASTAYLQINNLKIEDTATYFCTRDGYVWYFDVWGAGTTVTVSS
VL: QIVLSQSPAILSASPGEKVTMTCRASSSVNYMHWYQQKPGSSPKPWIYATSNLASGVPARFSGSGSGTSYSLTISRVEAEDAATYYCQQWSSNPIFTFGSGTKLEIK
notes: Mouse hybridoma antibody tested as cell supernatant; also called 59H30
B1: the binding result with HPV11L1, with HPV56L1, in the test with HPV16L1, with HPV45L1 and with HPV33L1 was “no binding (tested: 原液40μg/ml; 细胞上清1:100)” in each case.
